In the Immune Epitope Database (IEDB):

How the values were obtained:
Assay in all cases: IEDB peptide-MHC binding, purified MHC/competitive/radioactivity; filed as Kd, often an IC50 or EC50 that approximates it; ≥ and ≤ were set here for values at or beyond the usual limits of such assays
[1] = target: HLA-B*44:03
[2] = target: HLA-B*18:01
[3] = target: HLA-B*44:02
[4] = target: HLA-B*40:02
[5] = target: HLA-B*45:01
[6] = target: HLA-B*40:01
[7] = target: HLA-A*32:01; settings: source organism: Vaccinia virus WR
[8] = target: HLA-A*30:01; settings: source organism: Vaccinia virus WR
[9] = target: HLA-B*08:01; settings: source organism: Vaccinia virus WR
[10] = target: HLA-B*15:03; settings: source organism: Vaccinia virus WR
[11] = target: HLA-B*15:01; settings: source organism: Vaccinia virus WR
[12] = target: HLA-A*02:01; settings: source organism: Hepatitis B virus subtype ayw
[13] = source organism: SARS coronavirus Tor2
[14] = source organism: Mammarenavirus lassaense

AEMDGIQYG gave a Kd [1, 13] of 13.8 nM, a Kd [2, 13] of no less than 77500 nM and a Kd [3, 13] of 11.4 nM. For the same sequence, the Kd [4, 13] was 1310 nM, the Kd [5, 13] was 47.6 nM and the Kd [6, 13] was 2020 nM.

LIGARRTSF showed a Kd [7] of 5820 nM, a Kd [8] of 563 nM and a Kd [9] of 1.5 nM. It also gave a Kd [10] of 176 nM and a Kd [11] of 40.1 nM.

Work on REVGDTSSDL yielded a Kd [1, 14] of no less than 24800 nM, a Kd [2, 14] of no less than 70400 nM and a Kd [3, 14] of no less than 24500 nM. The Kd [4, 14] was 1360 nM, the Kd [5, 14] was no less than 70000 nM and the Kd [6, 14] was 11500 nM.

Sequence LEWLAEVVKL has a Kd [1, 13] of 7240 nM, a Kd [2, 13] of 1240 nM and a Kd [3, 13] of 9310 nM. The Kd [4, 13] was no less than 20100 nM, the Kd [5, 13] was 9160 nM and the Kd [6, 13] was 104 nM.

In the case of LHAVYSIVF, the Kd [10] is reported as 8.81 nM.

Sequence TEKSNVVRG has a Kd [1, 13] of no less than 78200 nM, a Kd [2, 13] of no less than 77500 nM and a Kd [3, 13] of 11900 nM. It also gave a Kd [4, 13] of no less than 50300 nM, a Kd [5, 13] of no less than 31800 nM and a Kd [6, 13] of no less than 42700 nM.

RLQPNQPPK gave a Kd [7] of 1520 nM, a Kd [8] of 145 nM and a Kd [9] of 1010 nM. For the same sequence, the Kd [10] was 298 nM and the Kd [11] was 934 nM.

For GLQSQQGHL, the Kd [12] was no less than 5000 nM.

Sequence LIRNKRLSL has a Kd [7] of no less than 77800 nM, a Kd [8] of 696 nM and a Kd [9] of 0.783 nM. The Kd [10] was 215 nM and the Kd [11] was 455 nM.

In the case of EELITDTEFL, the Kd [1, 14] is reported as 9100 nM, the Kd [2, 14] is reported as 10900 nM and the Kd [3, 14] is reported as 4740 nM. It also gave a Kd [4, 14] of no less than 24100 nM, a Kd [5, 14] of 12400 nM and a Kd [6, 14] of 12700 nM.
